In publication PMC7264223, “Tetrameric architecture of an active phenol-bound form of the AAA^+ transcriptional regulator DmpR” (Nature Communications, 2020):
“And” between values parts separate entries of the source, which are not always exact repeats. Identical values can stand only once.

T1: DmpR (Pseudomonas putida, UniProt Q7WSM9)
T1 construct: DmpR^WT, full-length (1–563), N-terminal 6 × His tag
T1 sequence (Q7WSM9 1-563): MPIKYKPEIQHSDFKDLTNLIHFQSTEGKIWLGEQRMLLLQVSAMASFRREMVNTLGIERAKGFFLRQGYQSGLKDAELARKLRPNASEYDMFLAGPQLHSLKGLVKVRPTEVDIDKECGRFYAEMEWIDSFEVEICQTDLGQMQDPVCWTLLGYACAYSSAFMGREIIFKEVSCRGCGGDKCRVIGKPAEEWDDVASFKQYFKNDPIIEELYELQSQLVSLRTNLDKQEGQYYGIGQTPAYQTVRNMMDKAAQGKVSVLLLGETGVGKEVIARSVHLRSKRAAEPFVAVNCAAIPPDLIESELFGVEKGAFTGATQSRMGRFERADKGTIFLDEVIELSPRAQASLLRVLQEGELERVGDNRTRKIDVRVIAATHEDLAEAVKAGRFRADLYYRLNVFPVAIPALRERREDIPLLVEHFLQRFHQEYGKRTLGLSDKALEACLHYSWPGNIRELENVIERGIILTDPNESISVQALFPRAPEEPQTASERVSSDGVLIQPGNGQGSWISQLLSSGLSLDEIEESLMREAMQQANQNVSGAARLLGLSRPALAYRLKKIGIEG

B1: σ^54_((1–119))-CPD, N-terminal residues of σ^54 (aa 1–119) fused to a C-terminal cysteine protease domain (CPD) (domain or fragment, UniProt P0A171 1-119, looked up)
chain: MKPSLVLKMGQQLTMTPQLQQAIRLLQLSTLDLQQEIQEALESNPMLERQEDGEDFDNSDPMADNAENKPAAEVQDNSFQESTVSADNLEDGEWSERIPNELPVDTAWEDIYQTSASSL
notes: also called N-terminal peptide of σ^54; σ^54 peptide; source: E. coli BL21-CodonPlus (DE3)-RIL, purified (His-Trap HP, Superdex 200); not shown: CPD (cysteine protease domain), C-terminal, kept
B2: DmpR^WT, full-length DmpR (di-methyl phenol regulator) bearing an N-terminal 6 × His tag (natural protein, Pseudomonas putida KCTC 1452, UniProt Q7WSM9 1-563, looked up)
chain: T1 sequence (Q7WSM9 1-563)
notes: DmpR (CapR) of Pseudomonas putida KCTC 1452, codons 1-563 (wild type), GenBank AAP46187.1; 66 kDa with tag; Mixture of dimers and tetramers without phenol, predominantly a tetramer with phenol; Vector pProEX HTa; also called CapR; wild type DmpR; source: E. coli BL21-CodonPlus (DE3)-RIL, purified (His-Trap HP, Superdex 200); not shown: His6, N-terminal, kept

Experiments:
DmpR [1] = biological target: DmpR (Pseudomonas putida, UniProt Q7WSM9, C119S/C137S); test: ([…] Å) and isothermal titration calorimetry; format: binding
DmpR [2] = biological target: T1, DmpR; test: activation of ATPase activity (radiolabelled ATP, TLC); phenol-induced tetramerization (BN-PAGE, SEC-MALS, single-molecule photobleaching); format: biochemical
[3] = biological target: DmpR^ΔD, truncated DmpR derivative (aa 18–481) with C119S/C137S (Pseudomonas putida KCTC 1452); test: not stated; DmpR^ΔD in the presence of phenol (Supplementary Fig. 2a, b)
[4] = biological target: DmpR^ΔD, truncated DmpR derivative (aa 18–481) with C119S/C137S (Pseudomonas putida KCTC 1452); test: crystal structure; DmpR^ΔD crystallised with 10 mM phenol and 3 mM AMP-PNP, sitting drop, 4 °C; 3.4 Å
[5] = biological target: DmpR^ΔS, truncated DmpR lacking only the sensory domain (residues 205–563) (Pseudomonas putida KCTC 1452); test: native gel or EMSA; blue native PAGE of truncated DmpR proteins after incubation with ATP or ATPγS, without phenol
[6] = biological target: DmpR^ΔS, truncated DmpR lacking only the sensory domain (residues 205–563) (Pseudomonas putida KCTC 1452); test: SEC-MALS; SEC combined with MALS of DmpR^ΔS
[7] = biological target: eGFP-DmpR^WT, fusion of eGFP and N-terminally 6 × His-tagged DmpR^WT (Pseudomonas putida KCTC 1452); test: single-molecule photobleaching (TIRF); eGFP-DmpR^WT (100 pM) held by biotinylated anti-GFP antibody on streptavidin surface, PBS, without phenol; steps of eGFP bleaching counted
[8] = biological target: eGFP-DmpR^WT, fusion of eGFP and N-terminally 6 × His-tagged DmpR^WT (Pseudomonas putida KCTC 1452); test: single-molecule photobleaching (TIRF); eGFP-DmpR^WT (100 pM) held by biotinylated anti-GFP antibody on streptavidin surface, PBS, with 3 mM phenol; addition of 1 mM ATP changed nothing
[9] = biological target: eGFP-DmpR^WT, fusion of eGFP and N-terminally 6 × His-tagged DmpR^WT (Pseudomonas putida KCTC 1452); test: single-molecule fluorescence imaging (TIRF); biotinylated σ^54_((1–119))-CPD immobilised through biotin-streptavidin; eGFP-DmpR^WT added with phenol and ATPγS; bleaching steps of bound eGFP-DmpR counted
[10] = biological target: eGFP-DmpR^WT, fusion of eGFP and N-terminally 6 × His-tagged DmpR^WT (Pseudomonas putida KCTC 1452); test: single-molecule fluorescence imaging (TIRF); eGFP-DmpR^WT (100 pM, with 1 mM MgCl2, 3 mM phenol, 1 mM ATPγS) held by biotinylated anti-GFP antibody; 1 nM Cy5-labelled σ^54_((1–119))-CPD added; 50 mM HEPES-NaOH pH 7.5, 300 mM NaCl, 5 mM MgCl2
[11] = biological target: B2; test: ITC; MicroCal Auto-iTC200, 25 °C; DmpR in the cell, σ^54_((1–119))-CPD (400 µM) as injectant; with phenol and ATPγS; settings: both partners purified
[12] = biological target: the molecule itself; test: native gel or EMSA; blue native PAGE (4–16% gradient gel), 20 µM DmpR, 20 min at 25 °C, without phenol

Oc1ccccc1 [phenol]
Kd (DmpR [1]): ~12 µM
activation of ATPase activity (radiolabelled ATP, TLC); phenol-induced tetrameri (DmpR [2]): The DmpR^WT and DmpR^ΔD proteins exhibited ATP hydrolysis in the presence of phenol

DmpR^ΔD, truncated DmpR derivative (aa 18–481) with C119S/C137S (domain or fragment)
stoichiometry N [3]: 4
stoichiometry N [4]: 4

DmpR^ΔS, truncated DmpR lacking only the sensory domain (residues 205–563) (domain or fragment)
stoichiometry N [5]: 4
stoichiometry N [6]: 4

eGFP-DmpR^WT, fusion of eGFP and N-terminally 6 × His-tagged DmpR^WT (natural protein)
percent of molecules with four-step photobleaching (tetramers) [7]: 19%
percent of molecules with three-step photobleaching (trimers) [7]: 14%
percent of molecules with two-step photobleaching (dimers) [7]: 32%
percent of molecules with four-step photobleaching (tetramers) [8]: 34%
percent of molecules with two-step photobleaching (dimers) [8]: 17%
stoichiometry N [9]: 4
stoichiometry N [10]: 4

B1
Kd [11]: ~4 µM
stoichiometry N [11]: 0.86 ± 0.022

B2
stoichiometry N [12]: 2 and 4
